What all share (assay): cell-based or functional assay
The target of test [1] is T1, membrane-bound human RGMc (human, UniProt Q6ZVN8 36-400).
T1 sequence: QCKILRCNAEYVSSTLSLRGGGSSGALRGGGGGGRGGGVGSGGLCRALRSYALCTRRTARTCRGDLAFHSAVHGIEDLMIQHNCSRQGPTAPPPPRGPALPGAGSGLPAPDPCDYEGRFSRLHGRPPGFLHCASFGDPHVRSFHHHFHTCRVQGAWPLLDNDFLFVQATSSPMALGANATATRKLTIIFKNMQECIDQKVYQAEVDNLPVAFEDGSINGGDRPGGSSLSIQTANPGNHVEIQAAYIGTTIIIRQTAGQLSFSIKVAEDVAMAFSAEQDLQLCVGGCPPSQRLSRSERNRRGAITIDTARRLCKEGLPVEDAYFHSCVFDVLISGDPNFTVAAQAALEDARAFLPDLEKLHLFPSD

Test [2] addresses T1, membrane-bound human RGMc. The source holds these as a separate data set.
The target of test [3] is T2, membrane-bound human RGMa (human, UniProt Q96B86 169-424).
T2 sequence (looked up): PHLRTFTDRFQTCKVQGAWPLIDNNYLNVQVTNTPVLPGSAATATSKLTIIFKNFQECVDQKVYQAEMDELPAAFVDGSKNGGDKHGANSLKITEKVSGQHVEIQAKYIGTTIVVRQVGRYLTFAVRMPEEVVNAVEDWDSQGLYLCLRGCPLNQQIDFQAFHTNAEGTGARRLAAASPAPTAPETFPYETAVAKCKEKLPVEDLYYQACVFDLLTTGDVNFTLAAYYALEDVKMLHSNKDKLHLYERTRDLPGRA

Substitutions are numbered along the chain they refer to.

B1: hHA-008 (antibody, human IgG1, kappa, L234A L235A)
heavy: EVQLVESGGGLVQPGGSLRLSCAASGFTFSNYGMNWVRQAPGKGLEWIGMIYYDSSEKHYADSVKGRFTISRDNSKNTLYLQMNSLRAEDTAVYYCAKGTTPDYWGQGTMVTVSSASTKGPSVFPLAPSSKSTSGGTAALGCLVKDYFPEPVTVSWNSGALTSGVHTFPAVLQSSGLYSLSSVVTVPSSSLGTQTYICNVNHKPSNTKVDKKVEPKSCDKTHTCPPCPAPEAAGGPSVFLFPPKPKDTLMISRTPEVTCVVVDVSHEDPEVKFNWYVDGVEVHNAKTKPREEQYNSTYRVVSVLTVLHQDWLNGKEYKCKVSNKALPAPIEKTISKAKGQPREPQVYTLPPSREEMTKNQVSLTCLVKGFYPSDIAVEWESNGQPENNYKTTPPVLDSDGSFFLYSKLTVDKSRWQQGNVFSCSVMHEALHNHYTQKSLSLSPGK
light: DVVLTQSPLSLPVTLGQPASISCRSSQSLEESDGYTFLHWFQQRPGQSPRLLIYEVSTRFSGVPDRFSGSGSGTDFTLKISRVEAEDVGVYYCFQATHDPLTFGQGTKLEIKRTVAAPSVFIFPPSDEQLKSGTASVVCLLNNFYPREAKVQWKVDNALQSGNSQESVTEQDSKDSTYSLSSTLTLSKADYEKHKVYACEVTHQGLSSPVTKSFNRGEC
Consider B1, for which the “IC50 (nM), BMP reporter assay for RGMc” value in test [1] stood at 0.377 nM. Also, in test [2], the “Potency on membrane hRGMc (RGMc/BMP reporter assay) IC50” value was 370 pM.

B2: hHA-004 (antibody, human IgG1, kappa, L234A L235A, V domains shown)
VH: EVQLVESGGGLVQPGGSLRLSCAASGFTFSNYGMNWIRQAPGKGLEWIGMIYYDSSEKHYADSVKGRFTISRDNSKNTLYLQMNSLRAEDTAVYYCAKGTTPDYWGQGTMVTVSS
VL: DVVLTQSPLSLPVTLGQPASISCRSSQSLESSDGDTFLEWFQQRPGQSPRLLIYDVSTRFSGVPDRFSGSGSGTDFTLKISRVEAEDVGVYYCFQVTHDPVTFGQGTKLEIKR
For the molecule B2, in test [1], the “IC50 (nM), BMP reporter assay for RGMc” value stood at 0.312 nM. Further, the “Potency on membrane hRGMc (RGMc/BMP reporter assay) IC50” value in test [2] was 310 pM. For the same molecule, in test [3], the “Potency on membrane hRGMa (RGMa/BMP reporter assay) IC50” value came to 2000 pM.

B3: hHA-009 (antibody, human IgG1, kappa, L234A L235A, V domains shown)
VH: B2 VH with I37V
VL: B2 VL with E30A, S31D, E39H, D55A, T58H, V96A
Consider B3, for which the “IC50 (nM), BMP reporter assay for RGMc” value in test [1] came out at 1.36 nM. Further, the “Potency on membrane hRGMc (RGMc/BMP reporter assay) IC50” value in test [2] was found to be 1360 pM.

B4: hHA-011 (antibody, human IgG1, kappa, L234A L235A, V domains shown)
VH: B2 VH with I37V, T100S
VL: B2 VL with S31D, D35G, T58S, V96A, V101L, T102S
In the case of B4, the “IC50 (nM), BMP reporter assay for RGMc” value in test [1] is 0.0554 nM. In addition, the “Potency on membrane hRGMc (RGMc/BMP reporter assay) IC50” value in test [2] worked out at 520 pM. The “Potency on membrane hRGMa (RGMa/BMP reporter assay) IC50” value in test [3] stood at 1700 pM.

The values above are taken from patent publication US20260098088A1 (DISC MEDICINE, published 2026).
